Target: light chain of the anti-IL8 IgG1 mAb of the CHO DP-12 cell line
Assay: SEC + native MS

stoichiometry N: 2
Substance: light chain of the anti-IL8 IgG1 mAb of the CHO DP-12 cell line (antibody)
